Data published in paper PMC10813002, “Neurofilament Light Protein Rod Domain Exhibits Structural Heterogeneity” (Biomolecules, 2024).

B1: NFL2 (neurofilament light chain protein, coil 2, Val249-Glu396) (domain or fragment, human, UniProt P07196 249-396, looked up)
chain: VTKPDLSAALKDIRAQYEKLAAKNMQNAEEWFKSRFTVLTESAAKNTDAVRAAKDEVSESRRLLKAKTLEIEACRGMNEALEKQLQELEDKQNADISAMQDTINKLENELRTTKSEMARYLKEYQDLLNVKMALDIEIAAYRKLLEGE
notes: neurofilament light chain protein (NFL), human, product of the NEFL gene, UniProt P07196, coil 2, residues Val249-Glu396; The monomer mass used for DSC is 16.9 kDa; also called NFL coil 2; source: E. coli C41, inclusion bodies solubilised in 8 M urea, purified (HisTrap HP), renatured by dialysis
B2: NFL_(1B+2) (neurofilament light chain protein, coils 1B and 2, Ser133-Glu396) (domain or fragment, human, UniProt P07196 133-396, looked up)
chain: SRFRALYEQEIRDLRLAAEDATNEKQALQGEREGLEETLRNLQARYEEEVLSREDAEGRLMEARKGADEAALARAELEKRIDSLMDEISFLKKVHEEEIAELQAQIQYAQISVEMDVTKPDLSAALKDIRAQYEKLAAKNMQNAEEWFKSRFTVLTESAAKNTDAVRAAKDEVSESRRLLKAKTLEIEACRGMNEALEKQLQELEDKQNADISAMQDTINKLENELRTTKSEMARYLKEYQDLLNVKMALDIEIAAYRKLLEGE
notes: neurofilament light chain protein (NFL), human, product of the NEFL gene, UniProt P07196, coils 1B and 2, residues Ser133-Glu396; The monomer mass used for DSC is 30.4 kDa; source: E. coli C41, inclusion bodies solubilised in 8 M urea, purified (HisTrap HP), renatured by dialysis
B3: NFL_(1A+1B) (neurofilament light chain protein, coils 1A and 1B, Ser80-Ile243) (domain or fragment, human, UniProt P07196 80-243, looked up)
chain: SNDLKSIRTQEKAQLQDLNDRFASFIERVHELEQQNKVLEAELLVLRQKHSEPSRFRALYEQEIRDLRLAAEDATNEKQALQGEREGLEETLRNLQARYEEEVLSREDAEGRLMEARKGADEAALARAELEKRIDSLMDEISFLKKVHEEEIAELQAQIQYAQI
notes: neurofilament light chain protein (NFL), human, product of the NEFL gene, UniProt P07196, coils 1A and 1B, residues Ser80-Ile243; The monomer mass used for DSC is 19.2 kDa; also called coil 1; source: E. coli C41, purified from the fraction of soluble proteins (HisTrap HP, imidazole gradient)
B4: NFL1B (neurofilament light chain protein, coil 1B, Ser133-Ile243) (domain or fragment, human, UniProt P07196 133-243, looked up)
chain: SRFRALYEQEIRDLRLAAEDATNEKQALQGEREGLEETLRNLQARYEEEVLSREDAEGRLMEARKGADEAALARAELEKRIDSLMDEISFLKKVHEEEIAELQAQIQYAQI
notes: neurofilament light chain protein (NFL), human, product of the NEFL gene, UniProt P07196, coil 1B, residues Ser133-Ile243; Dimer at 1-2 mg/mL; larger oligomers also at 5 mg/mL; also called NFL coil 1B domain; source: E. coli C41, purified from the fraction of soluble proteins (HisTrap HP, imidazole gradient)
B5: NFLROD (neurofilament light chain protein rod domain, coils 1A, 1B and 2, Ser80-Glu396) (domain or fragment, human, UniProt P07196 80-396, looked up)
chain: SNDLKSIRTQEKAQLQDLNDRFASFIERVHELEQQNKVLEAELLVLRQKHSEPSRFRALYEQEIRDLRLAAEDATNEKQALQGEREGLEETLRNLQARYEEEVLSREDAEGRLMEARKGADEAALARAELEKRIDSLMDEISFLKKVHEEEIAELQAQIQYAQISVEMDVTKPDLSAALKDIRAQYEKLAAKNMQNAEEWFKSRFTVLTESAAKNTDAVRAAKDEVSESRRLLKAKTLEIEACRGMNEALEKQLQELEDKQNADISAMQDTINKLENELRTTKSEMARYLKEYQDLLNVKMALDIEIAAYRKLLEGE
notes: neurofilament light chain protein (NFL), human, product of the NEFL gene, UniProt P07196, rod domain (coils 1A, 1B and 2), residues Ser80-Glu396; The monomer mass used for DSC is 36.6 kDa; also called NFL rod domain; full rod domain (1A+1B+2); source: E. coli C41, inclusion bodies solubilised in 8 M urea, purified (HisTrap HP), renatured by dialysis

Key:
[1] = molecular target: the molecule itself; experiment: SEC + cross-linking; 250 uL of 2 mg/mL protein on Superose 6 Increase 10/300 GL in 5 mM HEPES pH 8.0, 0.5 mM EGTA, 2 mM DTT; samples from each peak cross-linked with 0.024% glutaraldehyde at 30 °C for 60 min, SDS-PAGE in 12.5% gel
[2] = molecular target: the molecule itself; experiment: cross-linking; NFL1B at 1 and 2 mg/mL, 0.008% or 0.024% glutaraldehyde, SDS-PAGE

Protein	stoichiometry N [1]	stoichiometry N [2]
B1	2	
B2	4	
B3	2	
B4		2
B5	4	
